Target: T1, wild-type E. coli ribonucleotide reductase α2 subunit (E. coli, UniProt P00452 1-761)
T1 sequence (looked up): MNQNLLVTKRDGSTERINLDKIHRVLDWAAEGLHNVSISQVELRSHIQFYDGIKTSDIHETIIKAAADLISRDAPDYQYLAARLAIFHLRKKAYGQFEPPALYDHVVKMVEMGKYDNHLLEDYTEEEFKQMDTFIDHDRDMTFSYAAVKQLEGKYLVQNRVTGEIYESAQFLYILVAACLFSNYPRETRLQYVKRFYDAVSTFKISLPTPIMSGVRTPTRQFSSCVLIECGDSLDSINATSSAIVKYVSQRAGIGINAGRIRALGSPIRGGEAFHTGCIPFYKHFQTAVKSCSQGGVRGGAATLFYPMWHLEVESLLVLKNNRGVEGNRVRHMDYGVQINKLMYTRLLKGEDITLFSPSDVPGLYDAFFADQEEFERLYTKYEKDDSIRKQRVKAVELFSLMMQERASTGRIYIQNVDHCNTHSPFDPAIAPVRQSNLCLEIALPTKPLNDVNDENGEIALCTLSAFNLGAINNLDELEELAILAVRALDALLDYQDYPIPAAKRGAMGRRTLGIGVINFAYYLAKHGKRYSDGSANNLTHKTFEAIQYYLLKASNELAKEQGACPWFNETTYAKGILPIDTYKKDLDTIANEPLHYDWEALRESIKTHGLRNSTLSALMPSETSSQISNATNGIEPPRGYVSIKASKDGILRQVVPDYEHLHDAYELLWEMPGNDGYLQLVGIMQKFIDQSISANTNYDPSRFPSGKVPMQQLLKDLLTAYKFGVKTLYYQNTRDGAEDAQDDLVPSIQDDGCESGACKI
Assay: competitive inhibition of enzyme activity

B1: [NO2Y122]-β2 (enzyme)
chain: AYTTFSQTKNDQLKEPMFFGQPVNVARYDQQKYDIFEKLIEKQLSFFWRPEEVDVSRDRIDYQALPEHEKHIFISNLKYQTLLDSIQGRSPNVALLPLISIPELETWVETWAFSETIHSRSYTHIIRNIVNDPSVVFDDIVTNEQIQKRAEGISSYYDELIEMTSYWHLLGEGTHTVNGKTVTVSLRELKKKLYLCLMSVNALEAIRFYVSFACSFAFAERELMEGNAKIIRLIARDEALHLTGTQHMLNLLRSGADDPEMAEIAEECKQECYDLFVQAAQQEKDWADYLFRDGSMIGLNKDILCQYVEYITNIRMQAVGLDLPFQTRSNPIPWINTWLVSDNVQVAPQEVEVSSYLVGQIDSEVDTDDLSNFQL
modifications: 3-nitrotyrosine (NO2Y) in place of Y122; diferric cluster (met form, 2.9 Fe/β2)
In the case of B1, the Kd is reported as 400 ± 60 nM.
